We go through one molecule from paper PMC8229658 (Viruses, 2021).

In the assay the target is T1, Flag-tagged human RuvBL2 (recombinant) (human, UniProt Q9Y230 1-463).
T1 construct: also called Flag-RuvBL2
Nature of the assay: pull-down. As to conditions: both partners purified.

T1 sequence (Q9Y230 whole entry): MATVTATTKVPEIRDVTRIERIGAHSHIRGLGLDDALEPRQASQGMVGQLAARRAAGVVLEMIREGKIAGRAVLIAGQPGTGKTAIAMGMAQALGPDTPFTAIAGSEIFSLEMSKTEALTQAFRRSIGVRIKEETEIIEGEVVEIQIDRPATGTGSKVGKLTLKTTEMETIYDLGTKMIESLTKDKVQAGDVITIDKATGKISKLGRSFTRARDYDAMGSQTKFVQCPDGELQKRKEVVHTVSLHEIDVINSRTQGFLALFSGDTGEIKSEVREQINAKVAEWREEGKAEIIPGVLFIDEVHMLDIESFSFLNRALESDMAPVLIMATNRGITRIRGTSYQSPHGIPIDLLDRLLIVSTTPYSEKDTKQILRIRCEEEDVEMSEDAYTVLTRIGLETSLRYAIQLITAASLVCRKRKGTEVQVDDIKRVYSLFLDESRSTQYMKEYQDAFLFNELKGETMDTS

B1: GST-tagged RBD (amino acids 1-73) of the NS1 of PR8 virus (domain or fragment)
chain: MDPNTVSSFQVDCFLWHVRKRVADQELGDAPFLDRLRRDQKSLRGRGSTLGLDIETATRAGKQIVERILKEES
notes: also called GST-RBD
For B1, the binding result is given as “binds”.
